Data on 16 molecules can be found in patent publication US20030068675, “Position dependent recognition of GNN nucleotide triplets by zinc fingers” (published 2003).

What is called Kd is a measure of binding affinity in units of concentration. The low end stands for a tighter complex, the high end for a looser complex.

Assay in all cases: EMSA
Details in all cases: tags: MBP fusion
In general terms: Mobility shift assays separate free from complexed probe on a gel.

One data set has as its target T1, ZFP SBS#1445 (synthetic).
T1 chain: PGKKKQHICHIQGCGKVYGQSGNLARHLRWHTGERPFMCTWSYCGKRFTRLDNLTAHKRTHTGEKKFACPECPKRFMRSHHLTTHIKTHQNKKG
The procedure, abridged:
(§1)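 Purified ZFP was titrated against labeled double-stranded target (1 nM or lower, at least 10-fold below expected Kd) carrying the natural binding site with flanks. Binding buffer was 10 mM Tris pH 7.5, 100 mM KCl, 1 mM MgCl2, 0.1 mM ZnCl2, 5 mM DTT, 10% glycerol, 0.02% BSA, with equilibration for at least 45 min. Bound and free target were separated on a 10% polyacrylamide gel.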

The next data set addresses ZFP SBS#1444 (synthetic). An outline of the steps: as §1
A further data set concerns the target ZFP SBS#1443 (synthetic). The procedure, abridged:
as §1

The target in a further data set is ZFP SBS#1446 (synthetic). An outline of the steps:
as §1

The next data set addresses T2, ZFP SBS#1398 (synthetic).
T2 chain: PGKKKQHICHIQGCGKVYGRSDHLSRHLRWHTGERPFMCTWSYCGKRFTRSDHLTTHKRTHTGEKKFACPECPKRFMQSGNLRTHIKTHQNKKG
An outline of the steps:
as §1

The next data set deals with T3, ZFP SBS#1435 (synthetic).
T3 chain: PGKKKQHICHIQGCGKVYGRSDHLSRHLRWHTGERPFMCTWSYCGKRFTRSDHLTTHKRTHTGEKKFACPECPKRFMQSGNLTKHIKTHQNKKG
An outline of the steps: as §1

The next data set concerns the target T4, ZFP SBS#1402 (synthetic).
T4 chain: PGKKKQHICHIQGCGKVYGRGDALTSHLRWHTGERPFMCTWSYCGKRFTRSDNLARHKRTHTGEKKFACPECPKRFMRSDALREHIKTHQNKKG
An outline of the steps:
as §1

In a further data set the target is T5, ZFP SBS#1418 (synthetic).
T5 chain: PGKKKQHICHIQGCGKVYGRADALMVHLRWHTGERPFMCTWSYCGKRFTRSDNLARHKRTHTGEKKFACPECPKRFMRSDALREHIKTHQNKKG
The procedure, abridged:
as §1

A further data set has as its target ZFP SBS#1429 (synthetic). The procedure, abridged: as §1
The target in the next data set is ZFP SBS#1428 (synthetic). An outline of the steps: as §1
The next data set concerns the target ZFP SBS#1411 (synthetic). An outline of the steps:
as §1

Another data set addresses T6, ZFP SBS#1413 (synthetic).
T6 chain: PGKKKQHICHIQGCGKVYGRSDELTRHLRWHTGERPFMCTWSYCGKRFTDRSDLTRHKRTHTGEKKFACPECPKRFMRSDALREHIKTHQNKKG
An outline of the steps: as §1

A further data set addresses T7, ZFP SBS#1414 (synthetic).
T7 chain: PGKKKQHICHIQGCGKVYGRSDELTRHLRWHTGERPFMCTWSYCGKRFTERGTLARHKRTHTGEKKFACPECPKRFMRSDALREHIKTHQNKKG
An outline of the steps:
as §1

In the next data set the target is T8, ZFP SBS#1412 (synthetic).
T8 chain: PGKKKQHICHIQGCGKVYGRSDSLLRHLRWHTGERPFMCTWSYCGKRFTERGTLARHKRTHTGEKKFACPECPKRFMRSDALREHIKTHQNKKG
The procedure, abridged: as §1

Another data set has as its target T9, ZFP SBS#1434 (synthetic).
T9 chain: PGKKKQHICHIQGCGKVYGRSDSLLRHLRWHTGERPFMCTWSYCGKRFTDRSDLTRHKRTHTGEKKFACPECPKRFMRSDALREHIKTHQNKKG
An outline of the steps: as §1

For a further data set, the target named is T10, ZFP SBS#1423 (synthetic).
T10 chain: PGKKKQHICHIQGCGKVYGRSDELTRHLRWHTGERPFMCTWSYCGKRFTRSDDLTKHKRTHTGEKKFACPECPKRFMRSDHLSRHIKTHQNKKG
The procedure, abridged: as §1

The next data set has as its target T11, ZFP SBS#1422 (synthetic).
T11 chain: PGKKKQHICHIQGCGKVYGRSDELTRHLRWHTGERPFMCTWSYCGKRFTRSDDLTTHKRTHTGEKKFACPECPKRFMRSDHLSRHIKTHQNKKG
An outline of the steps:
as §1

The target in a further data set is T12, ZFP SBS#1401 (synthetic).
T12 chain: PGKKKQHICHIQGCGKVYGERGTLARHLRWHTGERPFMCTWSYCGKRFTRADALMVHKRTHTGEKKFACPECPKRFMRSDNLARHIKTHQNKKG
The procedure, abridged: as §1

The target in a further data set is T13, ZFP SBS#1417 (synthetic).
T13 chain: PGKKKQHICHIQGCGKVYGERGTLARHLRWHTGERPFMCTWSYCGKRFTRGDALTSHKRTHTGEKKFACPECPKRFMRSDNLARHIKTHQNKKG
An outline of the steps: as §1

A further data set concerns the target T14, ZFP SBS#1427 (synthetic).
T14 chain: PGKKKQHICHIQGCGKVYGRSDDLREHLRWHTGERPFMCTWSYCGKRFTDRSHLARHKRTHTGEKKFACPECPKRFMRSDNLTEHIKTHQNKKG
An outline of the steps:
as §1

Another data set concerns the target T15, ZFP SBS#1424 (synthetic).
T15 chain: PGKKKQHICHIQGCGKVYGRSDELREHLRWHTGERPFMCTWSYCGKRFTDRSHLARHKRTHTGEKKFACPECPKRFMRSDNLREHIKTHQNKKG
An outline of the steps: as §1

Another data set concerns the target T16, ZFP SBS#1442 (synthetic).
T16 chain: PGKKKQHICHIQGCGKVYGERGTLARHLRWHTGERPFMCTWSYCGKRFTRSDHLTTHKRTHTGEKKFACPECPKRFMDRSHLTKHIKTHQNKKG
The procedure, abridged:
as §1

For another data set, the target named is ZFP SBS#1440 (synthetic). The procedure, abridged:
as §1

The target of the next data set is ZFP SBS#1439 (synthetic). The procedure, abridged:
as §1

For another data set, the target named is T17, ZFP SBS#1410 (synthetic, UniProt P08047).
T17 chain: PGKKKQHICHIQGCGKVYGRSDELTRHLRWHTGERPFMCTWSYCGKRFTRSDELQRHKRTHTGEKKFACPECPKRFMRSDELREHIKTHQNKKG
The procedure, abridged: as §1

Another data set deals with ZFP SBS#1441 (synthetic). The procedure, abridged:
as §1

The next data set has as its target T18, ZFP SBS#1415 (synthetic).
T18 chain: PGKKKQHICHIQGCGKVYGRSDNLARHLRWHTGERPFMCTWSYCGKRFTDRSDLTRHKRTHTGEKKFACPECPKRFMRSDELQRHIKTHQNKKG
The procedure, abridged:
as §1

For the next data set, the target named is T19, ZFP SBS#1416 (synthetic).
T19 chain: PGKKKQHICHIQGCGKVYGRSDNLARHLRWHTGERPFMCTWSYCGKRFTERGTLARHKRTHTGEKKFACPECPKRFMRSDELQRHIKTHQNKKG
The procedure, abridged:
as §1

A further data set has as its target T20, ZFP SBS#1436 (synthetic, UniProt P08047).
T20 chain: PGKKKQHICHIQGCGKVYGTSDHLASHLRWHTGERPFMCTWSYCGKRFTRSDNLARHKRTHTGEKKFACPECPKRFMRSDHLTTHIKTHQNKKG
The procedure, abridged:
as §1

Another data set has as its target T21, ZFP SBS#1399 (synthetic, UniProt P08047).
T21 chain: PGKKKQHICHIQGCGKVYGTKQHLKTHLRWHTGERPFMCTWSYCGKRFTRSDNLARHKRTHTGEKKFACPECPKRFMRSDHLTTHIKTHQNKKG
The procedure, abridged:
as §1

Another data set addresses T22, ZFP SBS#1432 (synthetic).
T22 chain: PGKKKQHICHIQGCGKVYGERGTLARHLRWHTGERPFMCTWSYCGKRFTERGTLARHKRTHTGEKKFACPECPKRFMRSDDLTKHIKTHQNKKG
An outline of the steps: as §1

A further data set has as its target T23, ZFP SBS#1431 (synthetic).
T23 chain: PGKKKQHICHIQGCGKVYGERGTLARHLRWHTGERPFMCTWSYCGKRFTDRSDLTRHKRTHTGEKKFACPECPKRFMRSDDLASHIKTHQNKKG
An outline of the steps: as §1

A further data set addresses T24, ZFP SBS#1430 (synthetic).
T24 chain: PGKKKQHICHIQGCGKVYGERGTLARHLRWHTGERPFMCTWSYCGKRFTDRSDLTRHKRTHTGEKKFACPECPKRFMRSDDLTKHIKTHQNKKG
An outline of the steps: as §1

Chain of ZFP SBS#1439 (synthetic) (chain, as listed by the source): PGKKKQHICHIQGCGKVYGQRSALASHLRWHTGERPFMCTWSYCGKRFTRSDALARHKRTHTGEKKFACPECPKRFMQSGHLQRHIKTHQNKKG
Chain of ZFP SBS#1446 (synthetic) (chain, as listed by the source): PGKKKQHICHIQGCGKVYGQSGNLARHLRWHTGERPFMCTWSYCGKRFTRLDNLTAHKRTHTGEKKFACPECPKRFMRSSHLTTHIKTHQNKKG
Chain of ZFP SBS#1444 (synthetic) (chain, as listed by the source): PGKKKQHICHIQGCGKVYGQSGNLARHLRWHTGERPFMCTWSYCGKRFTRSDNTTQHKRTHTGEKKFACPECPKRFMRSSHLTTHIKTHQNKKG
Chain of ZFP SBS#1441 (synthetic) (chain, as listed by the source): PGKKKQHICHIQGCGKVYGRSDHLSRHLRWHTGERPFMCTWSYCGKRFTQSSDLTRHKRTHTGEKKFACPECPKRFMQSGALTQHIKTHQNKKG
Chain of ZFP SBS#1440 (synthetic) (chain, as listed by the source): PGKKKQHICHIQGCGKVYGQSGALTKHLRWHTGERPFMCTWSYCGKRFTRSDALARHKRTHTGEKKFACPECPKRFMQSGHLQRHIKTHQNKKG

B1: TGGAAGGAA (dsDNA)
DNA 1: TGGAAGGAA
DNA 2: TTCCTTCCA
Regarding B1, the Kd with ZFP SBS#1445 was 182 pM; in the data set with ZFP SBS#1444, 90 pM; with ZFP SBS#1443 it was 220 pM; in the data set with ZFP SBS#1446 it was 420 pM.

B2: TAATGGGGG (dsDNA)
DNA 1: TAATGGGGG
DNA 2: CCCCCATTA
For the molecule B2, the figures for the dissociation constant (Kd) in the data set with ZFP SBS#1398 and in the data set with ZFP SBS#1435 were 65 pM and 57 pM, respectively.

B3: CTGGAGTTG (dsDNA)
DNA 1: CTGGAGTTG
DNA 2: CAACTCCAG
Consider B3, for which the Kd amounted to 150 pM with ZFP SBS#1402 and 241 pM with ZFP SBS#1418.

B4: TGAGGCGAG (dsDNA)
DNA 1: TGAGGCGAG
DNA 2: CTCGCCTCA
In the case of B4, the Kd with ZFP SBS#1429 was determined as 74 pM; in the data set with ZFP SBS#1428, 102 pM; with ZFP SBS#1411, 282 pM.

B5: CTGGCCGCG (dsDNA)
DNA 1: CTGGCCGCG
DNA 2: CGCGGCCAG
For B5, the Kd in the data set with ZFP SBS#1413 worked out at 152 pM; in the data set with ZFP SBS#1414, 914 pM.

B6: CTGGCCGTG (dsDNA)
DNA 1: CTGGCCGTG
DNA 2: CACGGCCAG
Turning to B6, the values for the Kd in the data set with ZFP SBS#1412 and with ZFP SBS#1434 were 172 pM and 51 pM, respectively.

B7: GGGTCGGCG (dsDNA)
DNA 1: GGGTCGGCG
DNA 2: CGCCGACCC
For B7, the Kd in the data set with ZFP SBS#1423 came out at 34 pM; with ZFP SBS#1422, 64 pM.

B8: GAGTTGGCC (dsDNA)
DNA 1: GAGTTGGCC
DNA 2: GGCCAACTC
B8: the Kd was 167 pM in the data set with ZFP SBS#1401 and 1400 pM with ZFP SBS#1417.

B9: CAGGGCCCG (dsDNA)
DNA 1: CAGGGCCCG
DNA 2: CGGGCCCTG
On to B9, for which the Kd with ZFP SBS#1427 stood at 271 pM; with ZFP SBS#1424 it was 1370 pM.

B10: TGCTGGGCC (dsDNA)
DNA 1: TGCTGGGCC
DNA 2: GGCCCAGCA
In the data set with ZFP SBS#1442, B10 gave a Kd of 360 pM.

B11: GGAGTGTTA (dsDNA)
DNA 1: GGAGTGTTA
DNA 2: TAACACTCC
For the molecule B11, the results for the Kd with ZFP SBS#1440 and in the data set with ZFP SBS#1439 were 35 pM and 75 pM, respectively.

B12: CCGGCGGCG (dsDNA)
DNA 1: CCGGCGGCG
DNA 2: CGCCGCCGG
In the data set with ZFP SBS#1410, B12 had a dissociation constant Kd of 814 pM.

B13: ATAGCTGGG (dsDNA)
DNA 1: ATAGCTGGG
DNA 2: CCCAGCTAT
For B13, the Kd with ZFP SBS#1441 was determined as 262 pM. This lies in the sub-nanomolar range.

B14: GCGGCCGAG (dsDNA)
DNA 1: GCGGCCGAG
DNA 2: CTCGGCCGC
Turning to B14, the Kd in the data set with ZFP SBS#1415 was 102 pM; with ZFP SBS#1416, 153 pM.

B15: TGGGAGTGT (dsDNA)
DNA 1: TGGGAGTGT
DNA 2: ACACTCCCA
On to B15, for which the Kd with ZFP SBS#1436 came out at 26 pM; with ZFP SBS#1399 it was 100 pM.

B16: TCGGCCGCC (dsDNA)
DNA 1: TCGGCCGCC
DNA 2: GGCGGCCGA
As to B16, the Kd with ZFP SBS#1432 was 1780 pM; with ZFP SBS#1431, 6170 pM; with ZFP SBS#1430, 352 pM.
